Source: IntAct's records for PubMed 35512704

B1: Speckle-type POZ protein (Homo sapiens), O43791 (parent)
chain: MSRVPSPPPPAEMSSGPVAESWCYTQIKVVKFSYMWTINNFSFCREEMGEVIKSSTFSSGANDKLKWCLRVNPKGLDEESKDYLSLYLLLVSCPKSEVRAKFKFSILNAKGEETKAMESQRAYRFVQGKDWGFKKFIRRDFLLDEANGLLPDDKLTLFCEVSVVQDSVNISGQNTMNMVKVPECRLADELGGLWENSRFTDCCLCVAGQEFQAHKAILAARSPVFSAMFEHEMEESKKNRVEINDVEPEVFKEMMCFIYTGKAPNLDKMADDLLAAADKYALERLKVMCEDALCSNLSVENAAEILILADLHSADQLKTQAVDFINYHASDVLETSGWKSMVVSHPHLVAEAYRSLASAQCPFLGPPRKRLKQS
partner: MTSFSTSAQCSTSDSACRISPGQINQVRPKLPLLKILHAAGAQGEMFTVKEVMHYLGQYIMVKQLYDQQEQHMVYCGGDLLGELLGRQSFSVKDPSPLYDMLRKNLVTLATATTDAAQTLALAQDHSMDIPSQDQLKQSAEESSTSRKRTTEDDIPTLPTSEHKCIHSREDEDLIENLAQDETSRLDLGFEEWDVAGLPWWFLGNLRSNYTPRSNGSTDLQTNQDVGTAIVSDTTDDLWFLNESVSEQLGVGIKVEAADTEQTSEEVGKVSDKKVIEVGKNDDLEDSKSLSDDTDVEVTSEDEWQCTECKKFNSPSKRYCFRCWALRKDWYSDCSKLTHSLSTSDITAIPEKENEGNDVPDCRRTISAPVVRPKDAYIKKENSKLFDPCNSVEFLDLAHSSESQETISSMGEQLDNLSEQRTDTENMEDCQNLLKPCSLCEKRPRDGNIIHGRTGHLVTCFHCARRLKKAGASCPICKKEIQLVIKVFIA
B2: Speckle-type POZ protein (Homo sapiens), O43791 (parent)
chain: B1 chain
partner: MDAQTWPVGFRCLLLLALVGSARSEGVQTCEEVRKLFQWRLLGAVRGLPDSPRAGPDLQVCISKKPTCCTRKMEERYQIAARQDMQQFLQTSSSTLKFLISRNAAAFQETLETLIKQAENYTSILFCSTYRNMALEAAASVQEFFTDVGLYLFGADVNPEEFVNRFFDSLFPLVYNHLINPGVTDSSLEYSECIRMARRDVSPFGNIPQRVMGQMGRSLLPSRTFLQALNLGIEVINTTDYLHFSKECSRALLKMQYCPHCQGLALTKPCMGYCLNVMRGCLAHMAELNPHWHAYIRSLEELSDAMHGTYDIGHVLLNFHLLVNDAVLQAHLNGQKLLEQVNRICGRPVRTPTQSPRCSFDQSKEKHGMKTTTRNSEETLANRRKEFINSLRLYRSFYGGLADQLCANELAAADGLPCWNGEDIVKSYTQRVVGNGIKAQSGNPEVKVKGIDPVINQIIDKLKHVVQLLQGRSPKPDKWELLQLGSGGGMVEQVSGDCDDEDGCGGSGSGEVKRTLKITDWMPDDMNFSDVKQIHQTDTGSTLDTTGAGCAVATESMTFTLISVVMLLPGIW
B3: Speckle-type POZ protein (Homo sapiens), O43791 (parent)
chain: B1 chain
partner: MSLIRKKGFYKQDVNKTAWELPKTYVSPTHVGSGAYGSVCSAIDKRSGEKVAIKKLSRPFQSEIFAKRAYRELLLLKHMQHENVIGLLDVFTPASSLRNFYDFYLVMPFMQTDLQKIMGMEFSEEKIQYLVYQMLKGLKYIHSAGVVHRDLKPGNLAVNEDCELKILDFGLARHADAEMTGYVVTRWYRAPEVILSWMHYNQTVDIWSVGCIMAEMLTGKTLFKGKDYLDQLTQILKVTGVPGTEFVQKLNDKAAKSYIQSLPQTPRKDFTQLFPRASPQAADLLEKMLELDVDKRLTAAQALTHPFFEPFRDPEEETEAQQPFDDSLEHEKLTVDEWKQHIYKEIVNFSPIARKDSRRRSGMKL
B4: Speckle-type POZ protein (Homo sapiens), O43791 (parent)
chain: B1 chain
partner: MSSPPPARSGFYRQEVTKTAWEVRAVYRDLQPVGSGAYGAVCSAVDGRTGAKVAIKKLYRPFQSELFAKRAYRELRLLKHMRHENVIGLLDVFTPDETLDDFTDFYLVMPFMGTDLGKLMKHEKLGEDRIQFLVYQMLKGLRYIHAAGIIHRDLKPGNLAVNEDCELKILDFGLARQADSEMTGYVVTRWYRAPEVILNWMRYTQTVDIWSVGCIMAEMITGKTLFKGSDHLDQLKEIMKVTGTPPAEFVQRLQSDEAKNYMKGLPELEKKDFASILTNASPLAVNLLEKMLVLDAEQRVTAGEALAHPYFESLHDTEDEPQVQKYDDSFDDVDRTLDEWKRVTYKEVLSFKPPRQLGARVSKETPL
B5: Speckle-type POZ protein (Homo sapiens), O43791 (parent)
chain: B1 chain
partner: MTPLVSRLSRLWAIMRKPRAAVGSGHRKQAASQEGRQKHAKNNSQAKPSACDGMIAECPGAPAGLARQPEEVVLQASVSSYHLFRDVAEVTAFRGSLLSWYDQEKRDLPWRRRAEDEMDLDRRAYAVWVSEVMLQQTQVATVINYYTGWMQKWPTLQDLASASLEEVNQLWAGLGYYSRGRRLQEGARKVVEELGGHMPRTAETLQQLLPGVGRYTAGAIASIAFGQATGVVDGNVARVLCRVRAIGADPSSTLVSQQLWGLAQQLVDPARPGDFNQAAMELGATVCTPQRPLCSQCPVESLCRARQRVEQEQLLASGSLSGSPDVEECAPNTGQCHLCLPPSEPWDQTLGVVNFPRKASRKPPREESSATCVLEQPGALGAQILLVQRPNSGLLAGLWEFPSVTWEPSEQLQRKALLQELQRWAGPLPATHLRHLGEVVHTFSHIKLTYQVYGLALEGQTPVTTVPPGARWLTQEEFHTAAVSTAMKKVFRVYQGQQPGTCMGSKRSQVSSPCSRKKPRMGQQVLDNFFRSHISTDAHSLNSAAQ
B6: Speckle-type POZ protein (Homo sapiens), O43791 (parent)
chain: B1 chain
partner: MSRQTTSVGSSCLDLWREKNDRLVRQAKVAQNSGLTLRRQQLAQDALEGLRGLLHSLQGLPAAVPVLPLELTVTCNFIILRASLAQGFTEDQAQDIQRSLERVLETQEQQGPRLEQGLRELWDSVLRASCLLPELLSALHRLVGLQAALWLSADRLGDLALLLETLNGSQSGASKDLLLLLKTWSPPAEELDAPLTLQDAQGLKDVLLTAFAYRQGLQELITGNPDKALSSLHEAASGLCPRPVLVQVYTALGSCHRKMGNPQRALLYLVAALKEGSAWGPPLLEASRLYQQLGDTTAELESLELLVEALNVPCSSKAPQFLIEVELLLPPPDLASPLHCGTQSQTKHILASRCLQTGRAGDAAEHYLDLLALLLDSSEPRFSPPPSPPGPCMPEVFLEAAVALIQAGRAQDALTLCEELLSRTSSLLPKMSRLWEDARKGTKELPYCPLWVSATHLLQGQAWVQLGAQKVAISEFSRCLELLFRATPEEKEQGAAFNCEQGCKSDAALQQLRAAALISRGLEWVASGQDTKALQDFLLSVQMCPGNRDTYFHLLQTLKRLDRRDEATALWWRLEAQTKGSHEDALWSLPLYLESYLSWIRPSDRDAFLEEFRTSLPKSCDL

Variants of: B1
Conditions: with mdm4_human MDM4, O15151

effect of a mutation on the interaction	Variant
with no effect	F102C

Variants of: B1
Conditions: with mdm4_human MDM4, O15151
Remark: another data set of the same source

effect of a mutation on the interaction	Variant
with no effect	F133V

Variants of: B1
Conditions: with mdm4_human MDM4, O15151
Remark: another data set of the same source

effect of a mutation on the interaction	Variant
with no effect	F133L

Variants of: B1
Conditions: with mdm4_human MDM4, O15151
Remark: another data set of the same source

effect of a mutation on the interaction	Variant
with no effect	Y87C

Variants of: B2
Conditions: with gpc5_human GPC5, P78333

effect of a mutation on the interaction	Variant
with no effect	F102C

Variants of: B2
Conditions: with gpc5_human GPC5, P78333
Remark: another data set of the same source

effect of a mutation on the interaction	Variant
with no effect	Y87C

Variants of: B2
Conditions: with gpc5_human GPC5, P78333
Remark: another data set of the same source

effect of a mutation on the interaction	Variant
with no effect	F133L

Variants of: B2
Conditions: with gpc5_human GPC5, P78333
Remark: another data set of the same source

effect of a mutation on the interaction	Variant
with no effect	F133V

Variants of: B3
Conditions: with mk13_human MAPK13, O15264

effect of a mutation on the interaction	Variant
with no effect	Y87C

Variants of: B3
Conditions: with mk13_human MAPK13, O15264
Remark: another data set of the same source

effect of a mutation on the interaction	Variant
with no effect	F133L

Variants of: B3
Conditions: with mk13_human MAPK13, O15264
Remark: another data set of the same source

effect of a mutation on the interaction	Variant
with no effect	F133V

Variants of: B3
Conditions: with mk13_human MAPK13, O15264
Remark: another data set of the same source

effect of a mutation on the interaction	Variant
with no effect	F102C

Variants of: B4
Conditions: with mk12_human MAPK12, P53778

effect of a mutation on the interaction	Variant
with no effect	F133V

Variants of: B4
Conditions: with mk12_human MAPK12, P53778
Remark: another data set of the same source

effect of a mutation on the interaction	Variant
with no effect	F133L

Variants of: B4
Conditions: with mk12_human MAPK12, P53778
Remark: another data set of the same source

effect of a mutation on the interaction	Variant
with no effect	F102C

Variants of: B4
Conditions: with mk12_human MAPK12, P53778
Remark: another data set of the same source

effect of a mutation on the interaction	Variant
with no effect	Y87C

Variants of: B5
Conditions: with mutyh_human MUTYH

effect of a mutation on the interaction	Variant
with no effect	F102C

Variants of: B5
Conditions: with mutyh_human MUTYH
Remark: another data set of the same source

effect of a mutation on the interaction	Variant
with no effect	F133V

Variants of: B5
Conditions: with mutyh_human MUTYH
Remark: another data set of the same source

effect of a mutation on the interaction	Variant
with no effect	F133L

Variants of: B5
Conditions: with mutyh_human MUTYH
Remark: another data set of the same source

effect of a mutation on the interaction	Variant
with no effect	Y87C

Variants of: B6
Conditions: with fancg_human FANCG

effect of a mutation on the interaction	Variant
with no effect	F102C

Variants of: B6
Conditions: with fancg_human FANCG
Remark: another data set of the same source

effect of a mutation on the interaction	Variant
with no effect	Y87C

Variants of: B6
Conditions: with fancg_human FANCG
Remark: another data set of the same source

effect of a mutation on the interaction	Variant
with no effect	F133V
